Assay results as given in article PMC7963221 (2021).

B1: ADG-3 (antibody, V domains shown)
VH: EVQLVESGGGLIQPGGSLRLSCAASGFPFKGTYMTWVRQAPGKGLEWVSIIYSGGDTYYADSVKGRFTISRDNSKNTLFLQMNSLRVEDTAMYYCARDREMAIITERTYGLDVWGQGTMVTVSS
VL: QSVLTQPPSASGTPGQRVTISCSGGSSNIGSNSVNWYQQLPGTAPKLLIYSNSQRPSGVPDRFSGSKSGTSASLAISGLQSEDEADYYCAAWDDSLNTFRYVFGTGTKVTVL
B2: ADG-2 (antibody, V domains shown)
VH: EVQLVESGGGLVKPGGSLRLSCAASGFTFSSYYMNWVRQAPGKGLEWVSSISEDGYSTYYPDSLKGRFTISRDSAKNSLYLQMNSLRADDTAVYYCARDFSGHTAWAGTGFEYWGQGTLVTVSS
VL: QSVLTQPPSVSGAPGQRITISCTGSSSNIGAGYDVHWYQQLPGTAPKLLIYGSSSRNSGVPDRFSGSKSGTSASLAITGLQAEDEADYYCQSYDSSLSVLYTFGTGTKVTVL
B3: ADG-1 (antibody, V domains shown)
VH: QVQLVESGGGLVQPGGSLRLSCSASGFTFSRFAMHWVRQAPGKGLEYVSAINLNGDSKYYTDSVRGRFTISRDNSKNTLYLQMSSVRPDDTAFYYCVKDGGYYDSSGPGHWGQGTLVTVSS
VL: EIVLTQSPATLSLSPGERATLSCRASENILHYLAWYQQKPGQAPRLVIYDASRRATGIPGRFSGSGAGTDFTLTINSLEPEDFAVYYCQQRANWPQNFGGGTKVEIK

Columns and labels:
Assay in all cases: FACS
[1] = biological target: GD-Pangolin RBD
[2] = biological target: RaTG13 RBD
[3] = biological target: Frankfurt 1 RBD
[4] = biological target: WIV1 RBD
[5] = biological target: LYRa11 RBD
[6] = biological target: CS24 RBD
[7] = biological target: BM48-31 RBD
[8] = biological target: A021 RBD
[9] = biological target: SHC014 RBD
[10] = biological target: Civet 007-2004 RBD
[11] = biological target: Rs4231 RBD
[12] = biological target: SARS-CoV RBD displayed on the surface of yeast (SARS-CoV, UniProt P59594)
[13] = biological target: SARS-CoV-2 RBD (WT) displayed on the surface of yeast (SARS-CoV-2, UniProt P0DTC2)
[14] = biological target: Pangolin_GX- RBD

Binder	Kd [1] [pM]	Kd [2] [pM]	Kd [3] [pM]	Kd [4] [pM]	Kd [5] [pM]	Kd [6] [pM]	Kd [7] [pM]	Kd [8] [pM]	Kd [9] [pM]	Kd [10] [pM]	Kd [11] [pM]	Kd [12] [pM]	Kd [13] [pM]	Kd [14] [pM]
B1	680	880	960	720	920	1050	3090	910	930	900	1070	910	550	–
B2	240	–	380	420	470	450	–	470	330	350	400	390	430	1120
B3	870	–	970	680	790	970	–	950	–	780	–	1090	730	–
